± gives the standard error. Variants at the floor of the assay were thinned out.
B1: glmS ribozyme (parent)
chain: AUAAAAGCGCCAGAACUACAGAAAUGUAGUUGACGAGGAGGAGGUUUAUCGAAUUUUCGGCGGAUGCCUCCAAA

Variants of: B1
Assay: self-cleavage kobs at 2500 uM GlcN6P; higher = faster cleavage; RNA array
Details: with glucosamine-6-phosphate
Procedure, shortened: (§1)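 In situ transcription by E. coli RNA polymerase produced barcoded ribozyme variants on sequenced MiSeq chips, and a hybridised Cy3 probe tracked them at 37 °C. Glucosamine-6-phosphate was flowed in at 40 μM to 10 mM in HEPES/KCl/Mg(OAc)2 buffer. kcat and KM were taken from weighted Michaelis–Menten fits of kobs values from exponential decay fits.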

U45G U57G C68A C70A and C8G C10U G37U A42C U54G A64G C70G cannot be ordered by “self-cleavage kobs at 2500 uM GlcN6P” value: under 1e-05 s⁻¹ for the first, under 1e-05 s⁻¹ for the second.

Going from C16A A53U U55A to C16U C34U U47C G59U C71U, the “self-cleavage kobs at 2500 uM GlcN6P” value falls from 0.000149 ± 3.9e-05 s⁻¹ to under 1e-05 s⁻¹.

A12G G32U U45G G59U and A12C A15G G43C cannot be ordered by “self-cleavage kobs at 2500 uM GlcN6P” value: under 1e-05 s⁻¹ for the first, under 1e-05 s⁻¹ for the second.

A15C U55A G60C and A15G A33U G40U G41A cannot be ordered by “self-cleavage kobs at 2500 uM GlcN6P” value: under 1e-05 s⁻¹ for the first, under 1e-05 s⁻¹ for the second.

A6G G38C G41U C68U and C8G U46G A48U U55G G66U C70U cannot be ordered by “self-cleavage kobs at 2500 uM GlcN6P” value: under 1e-05 s⁻¹ for the first, under 1e-05 s⁻¹ for the second.

Compared with G41A A53G U55A, G41U G43C G51U C68G is lower in “self-cleavage kobs at 2500 uM GlcN6P” value: 0.000666 ± 0.00022 s⁻¹ for the first, under 1e-05 s⁻¹ for the second.

Going from G13C A42U G43C G51C U57G A64G C71U to G29A U30A A53G U65G, the “self-cleavage kobs at 2500 uM GlcN6P” value rises from under 1e-05 s⁻¹ to 6.03e-05 ± 1.7e-05 s⁻¹.

C34U G40C G43A and U46A U56G C58U G59U cannot be ordered by “self-cleavage kobs at 2500 uM GlcN6P” value: under 1e-05 s⁻¹ for the first, under 1e-05 s⁻¹ for the second.

Compared with G32U G43A A64G, U31G G32A A64G is higher in “self-cleavage kobs at 2500 uM GlcN6P” value: under 1e-05 s⁻¹ for the first, 0.000581 ± 0.00022 s⁻¹ for the second.

First: C11U U31C C50U
Second: U31G G32U C58U
The “self-cleavage kobs at 2500 uM GlcN6P” value of the first is lower: under 1e-05 s⁻¹ for the first, 8.74e-05 ± 2.9e-05 s⁻¹ for the second.

C10A A15C U46A C61U U65C and G41A U49C U57A G59U C68G cannot be ordered by “self-cleavage kobs at 2500 uM GlcN6P” value: under 1e-05 s⁻¹ for the first, under 1e-05 s⁻¹ for the second.

Compared with A12U G40A A53C, A6G G7C A36U A39U is lower in “self-cleavage kobs at 2500 uM GlcN6P” value: 0.00179 ± 0.00063 s⁻¹ for the first, under 1e-05 s⁻¹ for the second.

First: A14G G32U U55G
Second: G9C A39C C67A
The “self-cleavage kobs at 2500 uM GlcN6P” value of the first is higher: 0.000962 ± 0.00018 s⁻¹ for the first, under 1e-05 s⁻¹ for the second.

First: G41A U46A G66A
Second: U47G A52C G60C C71A
The “self-cleavage kobs at 2500 uM GlcN6P” value of the first is higher: 9.01e-05 ± 3.1e-05 s⁻¹ for the first, under 1e-05 s⁻¹ for the second.

Going from C8G A64G U69A C71U to A6U C11U U57G C58G C61A C68U C70U, the “self-cleavage kobs at 2500 uM GlcN6P” value rises from under 1e-05 s⁻¹ to 0.000618 ± 0.00019 s⁻¹.

First: C8A C50G U69G
Second: G38U U54G C71A
The “self-cleavage kobs at 2500 uM GlcN6P” value of the first is higher: 0.000345 ± 7.5e-05 s⁻¹ for the first, under 1e-05 s⁻¹ for the second.

G7U G9U U56A G59U and G13U G40A A42C U65G cannot be ordered by “self-cleavage kobs at 2500 uM GlcN6P” value: under 1e-05 s⁻¹ for the first, under 1e-05 s⁻¹ for the second.

Compared with A15G A33C U45A, A12G A42U U69A is 6.3-fold higher in “self-cleavage kobs at 2500 uM GlcN6P” value: 0.000135 ± 4.1e-05 s⁻¹ for the first, 0.000849 ± 0.00021 s⁻¹ for the second.

G38U G41U G59C U65A and A12G U45G C50A U57G cannot be ordered by “self-cleavage kobs at 2500 uM GlcN6P” value: under 1e-05 s⁻¹ for the first, under 1e-05 s⁻¹ for the second.

G32C G38U C58G and U46G C61A C70G cannot be ordered by “self-cleavage kobs at 2500 uM GlcN6P” value: under 1e-05 s⁻¹ for the first, under 1e-05 s⁻¹ for the second.

A12U A36G A52C C67U C71U and A14U G29A G40U U45A C50G C71G cannot be ordered by “self-cleavage kobs at 2500 uM GlcN6P” value: under 1e-05 s⁻¹ for the first, under 1e-05 s⁻¹ for the second.

A14U A52C A53G U55C U57G and A33U G41U G62U cannot be ordered by “self-cleavage kobs at 2500 uM GlcN6P” value: under 1e-05 s⁻¹ for the first, under 1e-05 s⁻¹ for the second.

First: A12U G44C A53G U56A
Second: A15G A33G A48C C61A
The “self-cleavage kobs at 2500 uM GlcN6P” value of the first is higher: 7.9e-05 ± 2.1e-05 s⁻¹ for the first, under 1e-05 s⁻¹ for the second.

C8A U45G U54G G66A and C16G U30C A33C C68U cannot be ordered by “self-cleavage kobs at 2500 uM GlcN6P” value: under 1e-05 s⁻¹ for the first, under 1e-05 s⁻¹ for the second.

Compared with G44C A53U U54G, C8A G32U A48C is lower in “self-cleavage kobs at 2500 uM GlcN6P” value: 7.38e-05 ± 2e-05 s⁻¹ for the first, under 1e-05 s⁻¹ for the second.

Compared with U31A U46C, G40U U49A G62C C68U is lower in “self-cleavage kobs at 2500 uM GlcN6P” value: 0.000756 ± 0.00018 s⁻¹ for the first, under 1e-05 s⁻¹ for the second.

First: U31C G37C A48G U49G U54C C71A
Second: G9U C50A G51U C68G
The “self-cleavage kobs at 2500 uM GlcN6P” value of the first is lower: under 1e-05 s⁻¹ for the first, 0.00198 ± 0.00067 s⁻¹ for the second.

Going from G13C G35C G44U U56A C61U to A53U U56A C68U, the “self-cleavage kobs at 2500 uM GlcN6P” value rises from under 1e-05 s⁻¹ to 0.000647 ± 0.00019 s⁻¹.

G41C G59U C67U and G7C C11G A12U cannot be ordered by “self-cleavage kobs at 2500 uM GlcN6P” value: under 1e-05 s⁻¹ for the first, under 1e-05 s⁻¹ for the second.

A6G C34U G40C and G41C G43C U47A A64G cannot be ordered by “self-cleavage kobs at 2500 uM GlcN6P” value: under 1e-05 s⁻¹ for the first, under 1e-05 s⁻¹ for the second.

Compared with A12G A33G G44C, A12G A53C U56G is higher in “self-cleavage kobs at 2500 uM GlcN6P” value: under 1e-05 s⁻¹ for the first, 5.07e-05 ± 1.5e-05 s⁻¹ for the second.

A15G A39U G60C and A6C G32A G59C cannot be ordered by “self-cleavage kobs at 2500 uM GlcN6P” value: under 1e-05 s⁻¹ for the first, under 1e-05 s⁻¹ for the second.

A33C G40U G51U U54A and C11A G37C G38U cannot be ordered by “self-cleavage kobs at 2500 uM GlcN6P” value: under 1e-05 s⁻¹ for the first, under 1e-05 s⁻¹ for the second.

Going from G38A U56G to C11A U54A U56A G59U, the “self-cleavage kobs at 2500 uM GlcN6P” value rises from under 1e-05 s⁻¹ to 0.00154 ± 0.00068 s⁻¹.

A6C G29A G37U and A6U G35C U56A G60U A64G cannot be ordered by “self-cleavage kobs at 2500 uM GlcN6P” value: under 1e-05 s⁻¹ for the first, under 1e-05 s⁻¹ for the second.

Compared with C11G C50U C61U C70G, A14G U31C G40U U55A is 9.4-fold higher in “self-cleavage kobs at 2500 uM GlcN6P” value: 0.000127 ± 3.7e-05 s⁻¹ for the first, 0.0012 ± 0.00032 s⁻¹ for the second.

Compared with C16U U30G G32A C68U, A33C G60U G62C is lower in “self-cleavage kobs at 2500 uM GlcN6P” value: 7.75e-05 ± 3.2e-05 s⁻¹ for the first, under 1e-05 s⁻¹ for the second.

G38C U56A C67G C68G and C10A U47G G59U C68U are within error of each other in “self-cleavage kobs at 2500 uM GlcN6P” value: 0.000115 ± 4.5e-05 s⁻¹ for the first, 5.63e-05 ± 1.7e-05 s⁻¹ for the second.

First: G13U A39C A48C
Second: U31G G32U C71U
The “self-cleavage kobs at 2500 uM GlcN6P” value of the first is lower: under 1e-05 s⁻¹ for the first, 0.000775 ± 0.00015 s⁻¹ for the second.

Going from A12C U54G C71U to C34G G38A G44U G63A, the “self-cleavage kobs at 2500 uM GlcN6P” value falls from 0.00338 ± 0.0011 s⁻¹ to under 1e-05 s⁻¹.

Variants of: B1
Assay: self-cleavage kobs at 10000 uM GlcN6P; higher = faster cleavage; RNA array
Details: with glucosamine-6-phosphate
Procedure, shortened: as §1

A12C A15G G43C and A15G A33U G40U G41A cannot be ordered by “self-cleavage kobs at 10000 uM GlcN6P” value: under 1e-05 s⁻¹ for the first, under 1e-05 s⁻¹ for the second.

U31G G32A A64G and A12U G40A A53C are within error of each other in “self-cleavage kobs at 10000 uM GlcN6P” value: 0.00106 ± 0.00026 s⁻¹ for the first, 0.00159 ± 0.00056 s⁻¹ for the second.

Compared with A12G A42U U69A, A12G U45G C50A U57G is lower in “self-cleavage kobs at 10000 uM GlcN6P” value: 0.00112 ± 0.00029 s⁻¹ for the first, under 1e-05 s⁻¹ for the second.

First: C11G C50U C61U C70G
Second: C16U U30G G32A C68U
The “self-cleavage kobs at 10000 uM GlcN6P” value of the first is 4.6-fold lower: 3.43e-05 ± 1.4e-05 s⁻¹ for the first, 0.000157 ± 5.1e-05 s⁻¹ for the second.

Source: the supplement of paper PMC7125110
